In PMC6479064:

How the values were obtained:
[1] = target: C. reinhardtii axonemal tubulin purified from the combined cyc1-cyc5 fractions (CP/B tubulin) (C. reinhardtii); test: dynamic microtubule assay by IRM with mean-squared displacement (MSD) analysis; MT ends tracked with FIESTA; quadratic fit to the first 15 s of MSD against time; estimated rate constants of tubulin dimer binding and unbinding at the growing end
[2] = target: C. reinhardtii axonemal tubulin purified from the combined cyc1-cyc5 fractions (CP/B tubulin) (C. reinhardtii); test: dynamic microtubule assay by interference reflection microscopy (IRM); label-free; tubulin at different concentrations in BRB80 with oxygen scavengers, 0.1 mg/ml casein, 1 mM dithiothreitol and 1 mM GTP, 28 °C; extensions grown from TAMRA-labeled GMPCPP-stabilized bovine brain MT seeds held on the coverslip by anti-TAMRA antibodies; constants from linear regression of growth rate against tubulin concentration; tubulin dimer onto the microtubule end

## C. reinhardtii axonemal tubulin purified from the combined cyc1-cyc5 fractions (CP/B tubulin) (complex)
[1]
  koff, minus end (MSD analysis): 228 s⁻¹
  koff, plus end (MSD analysis): 341 s⁻¹
  kon, minus end (MSD analysis): 2.6e+07 M⁻¹ s⁻¹
  kon, plus end (MSD analysis): 3.86e+07 M⁻¹ s⁻¹
  kon[Tub], minus end (MSD analysis): 234 s⁻¹
  kon[Tub], plus end (MSD analysis): 348 s⁻¹
[2]
  koff, minus end: 1.16 s⁻¹
  koff, plus end: 0.785 s⁻¹
  kon, minus end: 430000 M⁻¹ s⁻¹
  kon, plus end: 540000 M⁻¹ s⁻¹
  x-intercept (extrapolated tubulin concentration for growth), minus end: 2.58 µM
  x-intercept (extrapolated tubulin concentration for growth), plus end: 1.35 µM
